Data: article PMC9509318 (2022)

T1: Pfs48/45 full-length ectodomain (Plasmodium falciparum, UniProt Q8I6T1 27-427)
T1 chain: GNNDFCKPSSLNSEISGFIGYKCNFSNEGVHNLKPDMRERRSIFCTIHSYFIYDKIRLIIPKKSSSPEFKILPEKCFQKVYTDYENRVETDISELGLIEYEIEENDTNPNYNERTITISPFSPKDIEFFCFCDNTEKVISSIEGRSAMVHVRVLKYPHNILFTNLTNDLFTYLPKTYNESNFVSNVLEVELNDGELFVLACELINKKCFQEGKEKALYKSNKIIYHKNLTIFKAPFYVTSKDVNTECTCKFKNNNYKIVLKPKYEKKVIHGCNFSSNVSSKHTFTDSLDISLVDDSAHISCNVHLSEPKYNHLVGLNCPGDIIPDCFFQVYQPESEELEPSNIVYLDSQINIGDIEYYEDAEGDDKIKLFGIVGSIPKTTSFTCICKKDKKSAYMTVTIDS


How the values were obtained:
[1] = biological target: T1, Pfs48/45 full-length ectodomain; assay: SPR
[2] = biological target: T1, Pfs48/45 full-length ectodomain; assay: SPR

Binder	Kd [1]	koff [2]
32F3 monoclonal antibody (antibody, V domains shown) VH: DVKLVESGGGLVKLGGSLKLSCAASGFTFSSYYMSWVRQTPEKRLELVAAINNNGGSTYYPDTVKGRFTISRDNAKNTLNLQMNSLKSEDTALYYCTRQHYGNLYFFDYWGQGTTLTVSS VL: QIVLSQSPAILSASPGEKVTMTCRASSSVTYIHWYQQKPGSSPKPWIQATSSLASGVPARFSGSGSGTSYSLSISRVEAEDAATYYCQQWSSNPLTFGAGTKLELK	4.1 nM	0.000121 s⁻¹
85RF45.1 monoclonal antibody (antibody, V domains shown) VH: EVQLVESGGGLLQPGRSLKLSCVASGFTFNNYWMSWIRQAPGKGLEWIASISNIGGTIYYPDSVKGRFTISRDSAQNTLYLQMNSLRSEDTATYYCTRDLRMSDYFDYWGQGVMVTVSS VL: QFVLSQPNSVSTNLGSTVKLSCKRSTGNIGSNYVSWYQHHEGRSPTTMIYRDDQRPDGVPDRFSGSIDRSSNSALLTIDNVQTEDEAAYFCHSYSTGMYIFGGGTKLTVL	1.34 nM	
10D8 monoclonal antibody (antibody, V domains shown) VH: EVMLVESGGDLVKPGGSLKVSCAASGFTFSNYAMSWVRQTPEKRLEWVATISSGASYTHYPDSVKGRFTISRDNAKNTLYLQMSSLRSEDTAMYYCGRQVNRHDRALDAMDYWGQGTSVTVSP VL: not shown	35.8 nM	0.0027 s⁻¹
